We go through 5 molecules from patent US20170355769A1 (AbbVie / Abbott, published 2017).

Numbering of substitutions follows the chain as printed. A value given as a limit tells only on which side of the number the result lay.

The target in one experiment is T1, Human full length B7-H3 (human, UniProt Q5ZPR3 29-534).
T1 construct: On 3T12 fibroblasts expressing full length human B7-H3 or on NCI-H1650 cells; signal peptide residues 1-28 stated; also called huB7-H3; CD276
T1 sequence: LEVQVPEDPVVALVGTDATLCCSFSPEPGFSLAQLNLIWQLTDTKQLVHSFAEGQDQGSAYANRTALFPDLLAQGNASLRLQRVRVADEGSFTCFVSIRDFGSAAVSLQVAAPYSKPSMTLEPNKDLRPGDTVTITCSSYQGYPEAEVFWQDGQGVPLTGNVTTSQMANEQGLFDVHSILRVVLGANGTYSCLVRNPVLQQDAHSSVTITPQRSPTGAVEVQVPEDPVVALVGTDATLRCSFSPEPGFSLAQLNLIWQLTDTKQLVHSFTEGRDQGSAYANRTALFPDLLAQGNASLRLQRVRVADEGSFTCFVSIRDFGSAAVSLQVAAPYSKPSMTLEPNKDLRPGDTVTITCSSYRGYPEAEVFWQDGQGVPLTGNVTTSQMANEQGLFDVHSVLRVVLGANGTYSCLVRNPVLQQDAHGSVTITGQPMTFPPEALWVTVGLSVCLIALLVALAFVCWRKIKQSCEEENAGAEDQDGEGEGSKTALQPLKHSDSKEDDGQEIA
As to the kind of experiment: FACS, 3T12 transfectants. As to the method: (§1) A selection of hits were subcloned using the MoFlo (Beckman, Indianapolis, Ind., US) by depositing a single cell per well into 96 well cell culture plates to ensure clonality of the cell line. Resulting colonies were screened for specificity by FACS using mouse 3T12 fibroblast cell lines expressing the human B7-H3, cynomolgous B7-H3 or mouse B7-H3. Isotype of each monoclonal antibody was determined using the Mouse Monoclonal Isostyping Kit (Roche, No. 11-493-027-001, Indianapolis, Ind., USA).
Background: A flow cytometer gives signals particle by particle.

For experiment [1], the target named is T2, Cynomolgous B7-H3 on cells (cynomolgus).
T2 construct: whole, on cells; also called cyB7-H3; cyno B7-H3
As to the kind of experiment: FACS, 3T12 transfectants. The method, then: as §1

The target in the next experiment is T3, Mouse B7-H3 on cells (mouse, UniProt Q8VE98 29-316).
T3 construct: whole, on cells
T3 sequence (looked up): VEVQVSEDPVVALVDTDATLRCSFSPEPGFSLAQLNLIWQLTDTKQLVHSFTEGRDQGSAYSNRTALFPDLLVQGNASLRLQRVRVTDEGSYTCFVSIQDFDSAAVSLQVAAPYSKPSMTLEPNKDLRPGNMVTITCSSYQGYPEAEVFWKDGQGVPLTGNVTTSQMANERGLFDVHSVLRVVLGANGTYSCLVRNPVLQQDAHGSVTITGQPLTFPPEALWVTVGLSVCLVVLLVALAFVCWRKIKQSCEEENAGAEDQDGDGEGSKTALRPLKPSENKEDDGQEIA
Briefly: FACS, 3T12 transfectants. As to the method:
as §1

The target of experiment [2] is T4, Human B7-H3-ECD (His tag) (human, UniProt Q5ZPR3 29-461).
T4 construct: SPR analyte; also called huB7-H3; soluble ECD of human B7-H3
T4 sequence: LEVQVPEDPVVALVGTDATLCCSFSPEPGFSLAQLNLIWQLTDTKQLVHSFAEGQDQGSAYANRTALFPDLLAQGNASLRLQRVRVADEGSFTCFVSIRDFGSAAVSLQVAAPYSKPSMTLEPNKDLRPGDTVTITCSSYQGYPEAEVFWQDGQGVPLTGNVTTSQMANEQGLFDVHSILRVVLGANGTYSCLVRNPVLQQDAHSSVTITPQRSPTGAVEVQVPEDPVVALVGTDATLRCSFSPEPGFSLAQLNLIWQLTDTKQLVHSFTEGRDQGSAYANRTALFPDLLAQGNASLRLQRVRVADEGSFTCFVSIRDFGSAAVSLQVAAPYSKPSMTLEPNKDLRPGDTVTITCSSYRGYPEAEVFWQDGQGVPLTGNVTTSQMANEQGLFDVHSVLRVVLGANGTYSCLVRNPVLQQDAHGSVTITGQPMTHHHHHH
Briefly: SPR, mAb captured, ECD analyte.

The target of a further experiment is T5, Cyno B7-H3-ECD (his tag) (cynomolgus).
T5 construct: SPR analyte; also called soluble ECD of cyno B7-H3
T5 chain: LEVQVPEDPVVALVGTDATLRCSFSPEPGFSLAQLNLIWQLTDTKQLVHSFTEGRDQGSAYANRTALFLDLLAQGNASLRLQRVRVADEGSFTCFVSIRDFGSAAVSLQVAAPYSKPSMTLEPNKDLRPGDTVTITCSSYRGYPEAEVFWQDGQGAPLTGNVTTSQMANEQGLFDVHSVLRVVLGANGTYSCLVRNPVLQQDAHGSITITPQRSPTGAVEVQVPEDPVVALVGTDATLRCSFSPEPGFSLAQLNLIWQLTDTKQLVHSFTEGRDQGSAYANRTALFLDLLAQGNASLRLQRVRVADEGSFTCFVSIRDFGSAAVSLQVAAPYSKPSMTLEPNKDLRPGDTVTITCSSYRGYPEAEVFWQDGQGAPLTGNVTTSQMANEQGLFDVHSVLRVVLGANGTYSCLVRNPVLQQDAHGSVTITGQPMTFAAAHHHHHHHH
As to the kind of experiment: SPR, mAb captured, ECD analyte. For orientation: SPR reads the build-up and loss of mass on a sensor chip optically.

B1: Ab11 (antibody, mouse IgG1, V domains shown)
VH: EVKLVESGGGLVQPGGSLRLSCATSGFTFTNYYMSWVRQPPGKALEWLGFIRNKANDYTTEYSASVKGRFTISRDNSQSILYLQMNTLRAEDSATYYCARESPGNPFAYWGQGTLVTVSA
VL: DIVMTQSPSSLTVTAGEKVTMTCKSSQSLLNSGTQKNFLTWYQQKPGQPPKLLIYWASTRESGVPDRFTGSGSGTDFTLTISSVQAEDLAVYFCQNDYIYPLTFGAGTKLELK
notes: mouse IgG1/k
In general, EC50 refers to the concentration needed to bring the measured effect to its halfway point. A higher EC50 goes with lower potency in that assay. A word on the Kd: it is the concentration at which binding is half-saturated. A lower Kd goes with a tighter complex. A word on the koff: it is the first-order rate constant of dissociation. Read a high koff as fast dissociation. A word on the kon: it is the rate constant with which the complex forms. The low end stands for slow association, the high end for fast association. B1: the EC50 worked out at 23.4 nM with Human full length B7-H3, 2.03 nM in experiment [1] and 569 nM with Mouse B7-H3 on cells. Besides, the Kd is 45 nM in experiment [2] and 2.6 nM with Cyno B7-H3-ECD (his tag). Moreover, the koff in experiment [2] amounted to 0.00089 s⁻¹; with Cyno B7-H3-ECD (his tag), 7.2e-05 s⁻¹. Also, the kon was 20000 M⁻¹ s⁻¹ in experiment [2] and 27000 M⁻¹ s⁻¹ with Cyno B7-H3-ECD (his tag).

B2: Ab17 (antibody, mouse IgG2b, V domains shown)
VH: EVKLVESGGGLVQPGGSLKLSCAASGFTFSSYIMSWVRQTPEKRLEWVASIVSSNITYYPDSMKGRFTISRDNARNILYLQMSSLKSEDTAMYYCARSGTRAWFAYWGQGTLVTVSA
VL: DIVLTQSPASLAVSLGQRATISCRASKSVSTSAYSYMHWYQQKPGQPPKLLIYLASNLESGVPARFSGSGSGTDFTLNIHPVEEEDAATYYCQHSRELPYTFGGGTKLEIK
notes: mouse IgG2b/k
As for B2, the EC50 with Human full length B7-H3 is 2.75 nM; in experiment [1], 2.6 nM; with Mouse B7-H3 on cells, 2.39 nM. In addition, the Kd is 0.034 nM in experiment [2] and at most 0.019 nM in the experiment with Cyno B7-H3-ECD (his tag). Besides, the koff in experiment [2] is 1.9e-05 s⁻¹; with Cyno B7-H3-ECD (his tag), at most 1e-05 s⁻¹. Also, the kon is 540000 M⁻¹ s⁻¹ in experiment [2] and 510000 M⁻¹ s⁻¹ in the experiment with Cyno B7-H3-ECD (his tag).

B3: Ab2 (antibody, mouse IgG1, V domains shown)
VH: QVQLQQPGAELVKPGASVKLSCKASGYTFTSYWMHWVKQRPGQGLEWIGMIHPDSGTTNYNEKFRSKATLTVDKSSSTAYMQLSSLTSEDSAVYYCAVYYGSTYWYFDVWGTGTTVTVSS
VL: DVVMTQTPLSLPVSLGDQAYISCRSSQSLVHINGNTYLHWYRQKPGQSPKLLIYKVSNRFSGVPDRFSGSGSGTDFTLKISRVEAEDLGVYFCSQSTHFPFTFGSGTKLEIK
notes: mouse IgG1/k
Consider B3, for which the results for the EC50 (with Human full length B7-H3; in experiment [1]; with Mouse B7-H3 on cells) were 1.7 nM, 1.5 nM and 1 nM, respectively. The dissociation constant Kd is 24 nM in experiment [2] and 50 nM in the experiment with Cyno B7-H3-ECD (his tag). For the same molecule, the koff in experiment [2] worked out at 0.0029 s⁻¹; with Cyno B7-H3-ECD (his tag) it was 0.011 s⁻¹. The kon in experiment [2] turned out to be 120000 M⁻¹ s⁻¹; with Cyno B7-H3-ECD (his tag), 230000 M⁻¹ s⁻¹.

B4: Ab16 (antibody, mouse IgG1, V domains shown)
VH: EVKLLESGGGLVQPGGSLKLSCAASGFDFSRYWMSWVRQAPGKGLEWIGEINPDSSTINYTPSLKDKFIISRDNAKNTLYLQMSKVRSEDTALYYCARPGFGNYIYAMDYWGQGTSVTVSS
VL: DIQMTQTTSSLSASLGDRVTINCRASQDISNFLNWYQQKPDGTVKLLIYYTSRLYLGVPSRFSGSGSGTDYSLTISNLEQEDIATYFCQQGNTLPPTFGGGTKLEIK
notes: mouse IgG1/k
For the molecule B4, the EC50 with Human full length B7-H3 is 3.94 nM; in experiment [1], 4.28 nM; with Mouse B7-H3 on cells it was 319 nM. Moreover, the values for the Kd (in experiment [2]; in the experiment with Cyno B7-H3-ECD (his tag)) were 24 nM and 7.5 nM, respectively. For the same molecule, the koff in experiment [2] amounted to 0.0032 s⁻¹; in the experiment with Cyno B7-H3-ECD (his tag), 0.0056 s⁻¹. The kon worked out at 140000 M⁻¹ s⁻¹ in experiment [2] and 750000 M⁻¹ s⁻¹ with Cyno B7-H3-ECD (his tag).

B5: Ab6 (antibody, mouse IgG1, V domains shown)
VH: QVQLQQSGAELMKPGASVKISCKATGYTFSRYWIEWVKQRPGHGLEWIGEILPGSGSTNYNEKFKGKATFTADTSSNTAYMQVSSLTSEDSAVHYCARRGYGYVPYALDYWGQGTSVTVSS
VL: B4 VL with D1E, N22S, F32S, K45N, L56S, P96Y
notes: mouse IgG1/k
Molecule B5 showed an EC50 in the experiment with Human full length B7-H3 of 1.59 nM. Besides, the EC50 in experiment [1] is 1.53 nM. Further, in the experiment with Mouse B7-H3 on cells, the binding result is “no binding”. In experiment [2], this molecule registered a Kd of 840 nM, a koff of 0.01 s⁻¹ and an association rate constant (kon) of 12000 M⁻¹ s⁻¹. Moreover, in the experiment with Cyno B7-H3-ECD (his tag), the Kd is 410 nM, the koff was determined as 0.012 s⁻¹ and the kon came out at 28000 M⁻¹ s⁻¹.
